Results: PMC5435087
pKd: −log10 of the molar value.

Legend:
Test in all cases: BLI
[1] = system: ancAnimal dsrm1 (reconstructed ancestor (animal)); settings: steady state; initial-rate Km 4.2 uM; Label-free kinetics assay (ForteBio, biotinylated RNA on streptavidin probes, biocytin block), 1x Kinetics Buffer, pH 7; temperature and salt not stated …
[2] = system: ancPlant dsrm + dsrm2 alpha2 (reconstructed ancestor (plant)); settings: Label-free kinetics assay (ForteBio, biotinylated RNA on streptavidin probes, biocytin block), 1x Kinetics Buffer, pH 7; temperature and salt not stated …
[3] = system: ancAnimal dsrm2 (reconstructed ancestor (animal)); settings: steady state; initial-rate Km 22.9 uM; Label-free kinetics assay (ForteBio, biotinylated RNA on streptavidin probes, biocytin block), 1x Kinetics Buffer, pH 7; temperature and salt not stated …
[4] = system: ancPlant dsrm2 H31L (reconstructed ancestor (plant)); settings: Label-free kinetics assay (ForteBio, biotinylated RNA on streptavidin probes, biocytin block), 1x Kinetics Buffer, pH 7; temperature and salt not stated …; scale: fold change in Kd
[5] = system: ancPlant dsrm2 (reconstructed ancestor (plant)); settings: steady state; initial-rate Km 4.2 uM; Label-free kinetics assay (ForteBio, biotinylated RNA on streptavidin probes, biocytin block), 1x Kinetics Buffer, pH 7; temperature and salt not stated …
[6] = system: ancestral plant DRB4 dsrm1 + H31 (reconstructed ancestor (plant)); settings: Label-free kinetics assay (ForteBio, biotinylated RNA on streptavidin probes, biocytin block), 1x Kinetics Buffer, pH 7; temperature and salt not stated …; scale: fold higher affinity than ancestral plant DRB4 dsrm1
[7] = system: Eutherian PRKRA dsrm2 (reconstructed ancestor (Eutheria)); settings: Label-free kinetics assay (ForteBio, biotinylated RNA on streptavidin probes, biocytin block), 1x Kinetics Buffer, pH 7; temperature and salt not stated …; scale: fold higher affinity than ancestral mammal PRKRA dsrm2
[8] = system: ancestral TARBP2 dsrm1 + QV insertion (reconstructed ancestor (mammal)); settings: Label-free kinetics assay (ForteBio, biotinylated RNA on streptavidin probes, biocytin block), 1x Kinetics Buffer, pH 7; temperature and salt not stated …; scale: fold lower affinity than ancestral TARBP2 dsrm1
[9] = system: Rosid dsrm1 (reconstructed ancestor (Rosids)); settings: Label-free kinetics assay (ForteBio, biotinylated RNA on streptavidin probes, biocytin block), 1x Kinetics Buffer, pH 7; temperature and salt not stated …
[10] = system: ancAnimal dsrm + dsrm3 substitutions (reconstructed ancestor (animal)); settings: Label-free kinetics assay (ForteBio, biotinylated RNA on streptavidin probes, biocytin block), 1x Kinetics Buffer, pH 7; temperature and salt not stated …
[11] = system: ancestral plant DRB4 dsrm1 (before Fabaceae shift) (reconstructed ancestor (plant)); settings: Label-free kinetics assay (ForteBio, biotinylated RNA on streptavidin probes, biocytin block), 1x Kinetics Buffer, pH 7; temperature and salt not stated …
[12] = system: ancestral dsrm1 before Rosid shift (reconstructed ancestor (plant)); settings: Label-free kinetics assay (ForteBio, biotinylated RNA on streptavidin probes, biocytin block), 1x Kinetics Buffer, pH 7; temperature and salt not stated …
[13] = system: ancAnimal dsrm + dsrm1 substitutions (reconstructed ancestor (animal)); settings: Label-free kinetics assay (ForteBio, biotinylated RNA on streptavidin probes, biocytin block), 1x Kinetics Buffer, pH 7; temperature and salt not stated …
[14] = system: ancPlant DRB4 dsrm1 (reconstructed ancestor (plant)); settings: steady state; initial-rate Km 38.3 uM; Label-free kinetics assay (ForteBio, biotinylated RNA on streptavidin probes, biocytin block), 1x Kinetics Buffer, pH 7; temperature and salt not stated …
[15] = system: ancAnimal dsrm (reconstructed ancestor (animal)); settings: Label-free kinetics assay (ForteBio, biotinylated RNA on streptavidin probes, biocytin block), 1x Kinetics Buffer, pH 7; temperature and salt not stated …
[16] = system: ancPlant dsrm (reconstructed ancestor (plant)); settings: Label-free kinetics assay (ForteBio, biotinylated RNA on streptavidin probes, biocytin block), 1x Kinetics Buffer, pH 7; temperature and salt not stated …
[17] = system: Boreoeutherian TARBP2 dsrm1 (reconstructed ancestor (Boreoeutheria)); settings: Label-free kinetics assay (ForteBio, biotinylated RNA on streptavidin probes, biocytin block), 1x Kinetics Buffer, pH 7; temperature and salt not stated …; scale: fold lower affinity than ancestral TARBP2 dsrm1
[18] = system: ancPlant DRB6 dsrm2 (reconstructed ancestor (plant)); settings: steady state; initial-rate Km 24.8 uM; Label-free kinetics assay (ForteBio, biotinylated RNA on streptavidin probes, biocytin block), 1x Kinetics Buffer, pH 7; temperature and salt not stated …
[19] = system: ancAnimal dsrm3 (reconstructed ancestor (animal)); settings: steady state; initial-rate Km 4.1 uM; Label-free kinetics assay (ForteBio, biotinylated RNA on streptavidin probes, biocytin block), 1x Kinetics Buffer, pH 7; temperature and salt not stated …

## short dsRNA
[1]
  pKd: 5.40
[2]
  binding signal (fold higher affinity than ancPlant dsrm): 9.1
[3]
  pKd: 4.61
[4]
  binding signal: 6.6
[5]
  pKd: 5.28
[6]
  binding signal: 8.1
[7]
  binding signal: 3.79
[8]
  binding signal: 10
[9]
  Kd: 4.89 pKd
[10]
  binding signal (fold higher affinity than ancAnimal dsrm): 4.3
[11]
  Kd: 4.31 pKd
[12]
  Kd: 4.41 pKd
[13]
  binding signal (fold higher affinity than ancAnimal dsrm): 3
[14]
  pKd: 4.41
[15]
  pKd: 4.77
[16]
  pKd: 4.23
[17]
  binding signal: 10
[18]
  pKd: 4.61
[19]
  pKd: 5.49
